Source: the DeepSol protein solubility set

assay: soluble on expression in E. coli; label from the status in PepcDB or PDB records

Sequence | soluble on expression in E. coli
MGSDKIHHHHHHMKNIIGILGVFILAISCSGGKKESADAGLELTEDSVVYLLADNVTLGIKALFPFIDKDGHEYLTFQNQLEPEICVYDLQSGEFVKSIFFDREGANGVGMFGGYHIIDFDEIYLPSLQQSKVFVMEESGKKKREIITEKTDDGIPLLPFGAITFAYRPIYFNNGKMYIPQTVNMRLGNKVMEKSPVYVVVDTVKNVLSPFSIKFPPIMSSDDVTKPSLGNELSYSCCLNDKDQFVFSFFFDEDIYVVSLQDGEMKKIKVKSRYIDKPAIKENPPQDFDGAMKASSEIPCYGNLIYDKYRKVYYRFVYLKADLDGEKNYLNIWQYGRKSFSIMILNEDFDVIGETRFPDFTYISTLHYIGKDGLYLSDSHYKNPSFDENKLRFRRFKLVHYNKK | not soluble
MCMPLLPGEQQHLLIDRLEKRVPTAAGEGATTKL | not soluble
MFRPASIAVTAALCACALPALASETLNSRTDVLAALEAGYDVSVSTDLSRCTPEEGTPVSRTRGGRHIDAYRITEDGNVAFSGAHFTVANDGKPIQQFMRYQLRPDGSVRFTTYMYDLPGLQQRGPVLAYQCAFNEGARFHADLEHHHHHH | soluble
MRTVAALLFLFTCLESFESSSATPVCTNGFTLINNKCLKLLNTPVNHKAAEISCSSFGATLVTVKNDHDNQAIATIVGSSTPLVWLGLYCFSSNSSQCLWDDESGSARSYNNFSSGFPLVALGQCVYYSTQGALTGKWLSAECESQRMAFVCELPTTFADNCLHNYNGYCYTFSSSPQTFIGAQSTCAQTCGNLASVHSPNENRYITTFAPQDYYYIGAIWKTDYSLRWMDGSAWDYNNIDPIYPNRYNYCLHMSTITTSGSGFWYGDDCSLSRKYVCKREAGVPCTTVPPPVTVRPSSTNPSNCNAGLLMSPGVFTSPNYPQNYFNNENCTYQLSTLGSYRITLKFSNFRTESNYDFVSVYDGPTTSSPSLGRYSGNIGSFYVSSSENNMLVTFTSDAGVVFQGFTARFYSVVHRS | not soluble
MAHHHHHHMKCVLVVHSGGERMQRSCDLPDGVSTQEQLRAFVRSQDLRLESLDFTFAASLVRLTAGAAEKKGEKVVLREDADVQQLLKTAKQQRATHVLTFEVTISMSSSSPRNLGSFLSAEYAVDKDLVTLHVFAPLACPSRGKNPSYQEKMFIIPTRCVLESLARAVEDTLSIKLTNSGMKLVLYTMPQQPNGDQVEILYDTSALELLRQHTSQSTPGSTHLRHPYANPENYV | not soluble
MGSDKIHHHHHHMTSSFTDYCKFFNRILSEVQETQEQAIIKGAHLVSEAVMNGGRFYVFGSGHSHMIAEEIYNRAGGLALVTAILPPELMLHERPNKSTYLERIEGLSKSYLKLHQVTNKDVIMIISNSGRNTVPVEMAIESRNIGAKVIAMTSMKHSQKVTSRHKSGKKLYEYADVVLDNGAPVGDAGFQIANSEIYSGATSDSIGCFLAQALIVETLHLLVQQGFEPPVFKSSNVDGADLYNDKIFNEYVKW | not soluble
MAHHHHHHMGEGTAAAPPHSQEPRLRRRPRQLTVRHVVHVQPTSYFAQFERRCRHDALLYSPFLREDRVQARPKTLPPSLHREVGEPGVYAAYNAYIFADVAGQHDPLHHRRVCAAADHGEEEAVAARVEAGGDVVVATNVSSPPRPDSSKSLSAVQLSLTPLLSFTLDDMADTADGDAGMGNRVECESGSTRIGEAHRCHPPPPLLHGTPPEAGLPLHKTWHLFTSYVQRHFTAFPTALVHRYHLHHLAPSLFPNVGAAALMQGAGGAGNATGDRAARSGTAVGVAISTEASGSGSAVRAARAKPNVSNSSSSSAEDVVEYWPYSLKLRCIPEATLQLPYKQHATAKKTTQAQQRAEMAGSARQAPSTVNASLGHDAATAAAVPSPHLPAPRKRERQVSSSGDSASAPAYTVHASASSSTATAATPRVLPPPAAAARTRPPSAPPRRVAVVDGVTSLLPYPTPASALALLSTTFLRSLRTSSVVAAAAAAAAGTGEVPATPSTLTESRADWHGGFAASHQRVDVPSTGMVGMGGGALGFLGTGSAVPSKYRNVSGTFLELHLPAYCFPGGGCPVKPLLHDDDSAHASGAAAVVAEDTPSATSASPPAGEAACARREGDAVLGFGSADSSTYSCGPATVSMDESQKTAPRRWSSAPLKMDSQQLRPWGGYPGLWRGQCRAARLSMRASPWR | soluble
MGSDKIHHHHHHMKTGRNDPCPCGSAKKYKNCCMDAISKQNSALLDDISQVTAMNPNLTHDELDLVLQQKAFAQNNRPIADFCGLSPAQMANWLYAPFNELNCVAISPPDDLSSSPVMRYLEVILDEAMAQNGSFKATSKGNLPTKLVKQASGLLPEFAVAQFSTNISISEYAGSNEDKFNALHYTRILAELSGIIYRKSGSYHVKKAAQKQYQSQGLTAFFLPMLEAAITKYNWGYLDSWEHDAVLSTFWLFMLWRLQSHASVDELIDEVATAFPDLLHQFPADKYRTPQAQLGMGIDSRFLKRFLQFWGFITLDPKRLFAEPREPRKVQIQPLLTQTFKFTI | not soluble
MDTFEKLDKVDLQILRTLQENARLTTKELAARVSLSSTPVFERLKRLESGGYIKKYIAVLDAEKLNQGFVVFCSVKLRRLNRDIAAEFTRIIQDIPEVTECYNISGSYDYLLKIHAPNMKYYQEFILNVLGTIDSLGSLESTFVMAEVKHRYGIHI | soluble
MGSDKIHHHHHHMALVKLQPGDITSDDPIPFPIYSADGKLLLQEGQSVTTSSLLDRLYDLGYRKSTEKVRSGPFNPVSHAPQVNTELLISSAHAHEKALPKPEAISGRSMNVLPTLKHRVEFFRLTPAGGSEAIHVDLVGVVHEKTIIVRSTGPDESVVLDPEHSYQAKLFTGSHLSTFSTRLTPDGVGPFGCYYLEYPDNLIHATVRKHRRVTTSFPAKLQSGEYQRASVDVTVSNISLIGAGVSSSVDFLTVGQSARLSMNLSVAQRVRPVEVYVEVRNRREKDGGFFYGLEFVRVSDEVRLEIKDFVLDSLATL | not soluble
MSLNTVLRLPLKYPSTNKELKSHEYFESQIAYTGCLIATTTHMVDHISWRLNNDLKTITLTPICISNPFQLECRTISLLLPSQVYPHCIDAVYHGEEGGYLVVDVIDENYLWITLRIEMNDFLHNTKNFRPLTLDQFESWGHISVPYSFELRSNPYCLRVLDERNVVVSLKDGGLLHFQRSSVLADFNVFNCEESAHFHLGGILDGIFKSGRADLTVDGVSSNAAIDATIVPDPSKSLIATLTVSKTIKFWDLKEHSLLRERTIHPQDTNTWLSFGPARYLQCYGNVLGVHSLLQTKHSTSIDFWDVSPLKEDQKSYKILHTVELLSPTINGAPSDSPFSNDIWFIQDFTLKFEKGNFTVLWKSNNSSILTIYDLKNLAENDKPPKLSQWTLSGSEGHHHHHH | not soluble
STQVSQATSQPINFQVQKDGSSEKSHMDDYMQHPGKVIKQNNKYYFQTVLNNASFWKEYKFYNANNQELATTVVNDNKKADTRTINVAVEPGYKSLTTKVHIVVPQINYNHRYTTHLEFEKAIPTLADAAK | not soluble
MAHHHHHHMLSTSQAFLASLRYRRPYWMLFLKGADNWKIYTVIQQPDHQRTEMLYQAWLGGLDRPYVRPKCMAHQPVWLSKKRHLLQKARLEGPETSVEKYVLEWYKKFHSFQGTDRPTAEDLHTAFDLVERPLDLSYACQLLNQCRNHYYIRLSDDSFEIFLEACLRVDRRDCAIYALEHAEELGFWHVSDNCRRYLAGEQTWYKRSPVDLLYYPLEENAERNTAVTSGTAASAVAASDKVKGDEKVEGAPRTSATTSATAASAENEGEAEVTDDEIARLQAELEALEREIGSEGADGTDKD | not soluble
MVSDEDELNLLVIVVDANPIWWGKQALKESQFTLSKCIDAVMVLGNSHLFMNRSNKLAVIASHIQESRFLYPGKNGRLGDFFGDPGNPPEFNPSGSKDGKYELLTSANEVIVEEIKDLMTKSDIKGQHTETLLAGSLAKALCYIHRMNKEVKDNQEMKSRILVIKAAEDSALQYMNFMNVIFAAQKQNILIDACVLDSDSGLLQQACDITGGLYLKVPQMPSLLQYLLWVFLPDQDQRSQLILPPPVHVDYRAACFCHRNLIEIGYVCSVCLSIFCNFSPICTTCETAFKISLPPVLKAKKRN | soluble
MGVSLAKGGNVSLSKEAPGLTAVLVGLGWDVRTTTGTDYDLDASALLLDTSGKVLSDGHFVFYNNLTSPDGSVEHTGDNLTGEGEGDDEAVKVNLVAVPAEVDRIVFPVSIHDAENRGQSFGQVRNAFIRVVNQANNQELARYDLSEDASTETAMVFGELYRHGAEWKFRAVGQGYASGLAGIAADFGVNV | not soluble
